T1: human IL-18BP (interleukin-18 binding protein, isoform A) (human, UniProt O95998 31-194)
T1 sequence: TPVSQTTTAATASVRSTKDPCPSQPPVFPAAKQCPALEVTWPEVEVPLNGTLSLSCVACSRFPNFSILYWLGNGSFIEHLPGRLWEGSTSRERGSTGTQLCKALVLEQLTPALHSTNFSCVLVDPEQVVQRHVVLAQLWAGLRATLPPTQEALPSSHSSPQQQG

T2: cynomolgus IL-18BP (cynomolgus monkey)
T2 construct: Generated in-house; also called cyIL-18BP; cyno IL-18BP
T2 chain: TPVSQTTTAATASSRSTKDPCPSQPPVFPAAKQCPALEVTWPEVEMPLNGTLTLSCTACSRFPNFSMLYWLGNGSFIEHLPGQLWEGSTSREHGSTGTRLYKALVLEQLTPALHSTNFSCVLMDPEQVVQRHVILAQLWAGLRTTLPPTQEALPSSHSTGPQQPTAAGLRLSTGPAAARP

B1: SA302a (antibody, human IgG1, V domains shown)
VH: QVQLQESGPGLVKPSQTLSLTCTVSGYSITSDYNAHWIRQPPGKGLEWIGYIHYSGSTNYNPSLKSRVTISRDTSKNQFSLKLSSVTAADTAVYYCARNYGSIYVNYFDYWGQGTLVTVSS
VL: EIVLTQSPATLSLSPGERATLSCSASSSVSYMYWYQQKPGQAPRPLIYRTSNLASGIPARFSGSGSGTDFTLTISSLEPEDFAVYYCQQYHSYPTFGGGTKVEIK
notes: humanized; human IgG1 (suffix a), kappa
B2: SA330a (antibody, human IgG1, V domains shown)
VH: B1 VH with S57Q, N59Y, Y100F
VL: B1 VL
notes: as for B1
B3: SA319a (antibody, human IgG1, V domains shown)
VH: B1 VH with S31Q, S57Q, Y100F
VL: B1 VL
notes: as for B1
B4: SA318a (antibody, human IgG1, V domains shown)
VH: B1 VH with S31Q, S57Q, N59M, Y100F
VL: B1 VL
notes: as for B1
B5: SA311a (antibody, human IgG1, V domains shown)
VH: B1 VH with S57Q, N59M
VL: B1 VL
notes: as for B1
B6: SA312a (antibody, human IgG1, V domains shown)
VH: B1 VH with S31Q, N59M
VL: B1 VL
notes: as for B1
B7: SA315a (antibody, human IgG1, V domains shown)
VH: B1 VH with S57Q, N59M, Y100F
VL: B1 VL
notes: as for B1
B8: SA328a (antibody, human IgG1, V domains shown)
VH: B1 VH
VL: B1 VL with P94V
notes: as for B1
B9: SA321a (antibody, human IgG1, V domains shown)
VH: B1 VH with S31Q, S57Q, N59L, Y100F
VL: B1 VL
notes: as for B1
B10: SA325a (antibody, human IgG1, V domains shown)
VH: B1 VH
VL: B1 VL with Q89E
notes: as for B1
B11: SA327a (antibody, human IgG1, V domains shown)
VH: B1 VH
VL: B1 VL with S92G
notes: as for B1
B12: SA313a (antibody, human IgG1, V domains shown)
VH: B1 VH with N59M, Y100F
VL: B1 VL
notes: as for B1
B13: SA317a (antibody, human IgG1, V domains shown)
VH: B1 VH with N59L
VL: B1 VL
notes: as for B1
B14: SA316a (antibody, human IgG1, V domains shown)
VH: B1 VH with N59Y
VL: B1 VL
notes: as for B1
B15: SA303a (antibody, human IgG1, V domains shown)
VH: B1 VH with Y100F
VL: B1 VL
notes: as for B1
B16: SA326a (antibody, human IgG1, V domains shown)
VH: B1 VH
VL: B1 VL with Q89L
notes: as for B1
B17: SA329a (antibody, human IgG1, V domains shown)
VH: B1 VH
VL: B1 VL with T95K
notes: as for B1
B18: SA340a (antibody, human IgG1, V domains shown)
VH: B1 VH with S31Q, S57Q, N59Y, Y100F
VL: B1 VL with T95K
notes: as for B1
B19: heavy chain library variant C34K (antibody, V domains shown)
VH: B1 VH with A35K
VL: B1 VL
B20: heavy chain library variant C34F (antibody, V domains shown)
VH: B1 VH with A35F
VL: B1 VL
B21: heavy chain library variant C34I (antibody, V domains shown)
VH: B1 VH with A35I
VL: B1 VL
B22: heavy chain library variant C34Q (antibody, V domains shown)
VH: B1 VH with A35Q
VL: B1 VL
B23: heavy chain library variant C34L (antibody, V domains shown)
VH: B1 VH with A35L
VL: B1 VL
B24: heavy chain library variant C34D (antibody, V domains shown)
VH: B1 VH with A35D
VL: B1 VL
B25: heavy chain library variant C34H (antibody, V domains shown)
VH: B1 VH with A35H
VL: B1 VL

Where a chain is given by its changes, count along the chain named. Names may count otherwise.

The values that follow come from patent US20250368745A1 (published 2025).

The target of the first assay is T1, human IL-18BP (interleukin-18 binding …). Description: cell-based or functional assay.
Turning to B1, the “EC50 in PBMC Assay 1 (endogenous IL-18BP), IFNγ” value amounted to 15 nM and the “EC50 in PBMC Assay 2 (precomplexed IL-18BP), IFNγ” value amounted to 2.15 nM.

As for B2, the “EC50 in PBMC Assay 1 (endogenous IL-18BP), IFNγ” value came to 21 nM and the “EC50 in PBMC Assay 2 (precomplexed IL-18BP), IFNγ” value amounted to 0.9 nM.

As to B3, the “EC50 in PBMC Assay 1 (endogenous IL-18BP), IFNγ” value is 0.2 nM and the “EC50 in PBMC Assay 2 (precomplexed IL-18BP), IFNγ” value is 0.07 nM.

Take B4: the “EC50 in PBMC Assay 1 (endogenous IL-18BP), IFNγ” value is 0.9 nM and the “EC50 in PBMC Assay 2 (precomplexed IL-18BP), IFNγ” value was determined as 0.7 nM.

On to B5, for which the “EC50 in PBMC Assay 1 (endogenous IL-18BP), IFNγ” value came to 0.6 nM and the “EC50 in PBMC Assay 2 (precomplexed IL-18BP), IFNγ” value came to 1.24 nM.

As to B6, the “EC50 in PBMC Assay 1 (endogenous IL-18BP), IFNγ” value was 2.1 nM and the “EC50 in PBMC Assay 2 (precomplexed IL-18BP), IFNγ” value amounted to 0.74 nM.

Turning to B7, the “EC50 in PBMC Assay 1 (endogenous IL-18BP), IFNγ” value came out at 0.5 nM and the “EC50 in PBMC Assay 2 (precomplexed IL-18BP), IFNγ” value amounted to 0.49 nM.

On to B8, for which the “EC50 in PBMC Assay 1 (endogenous IL-18BP), IFNγ” value came to 2 nM and the “EC50 in PBMC Assay 2 (precomplexed IL-18BP), IFNγ” value is 5.8 nM.

As to B9, the “EC50 in PBMC Assay 1 (endogenous IL-18BP), IFNγ” value was found to be 0.9 nM and the “EC50 in PBMC Assay 2 (precomplexed IL-18BP), IFNγ” value amounted to 0.85 nM.

B10: the “EC50 in PBMC Assay 1 (endogenous IL-18BP), IFNγ” value is 6.1 nM and the “EC50 in PBMC Assay 2 (precomplexed IL-18BP), IFNγ” value amounted to 5 nM.

B11: the “EC50 in PBMC Assay 1 (endogenous IL-18BP), IFNγ” value came out at 7.1 nM and the “EC50 in PBMC Assay 2 (precomplexed IL-18BP), IFNγ” value turned out to be 4 nM.

In the case of B12, the “EC50 in PBMC Assay 1 (endogenous IL-18BP), IFNγ” value turned out to be 1.2 nM and the “EC50 in PBMC Assay 2 (precomplexed IL-18BP), IFNγ” value was determined as 0.71 nM.

With B13, the “EC50 in PBMC Assay 1 (endogenous IL-18BP), IFNγ” value is 0.4 nM and the “EC50 in PBMC Assay 2 (precomplexed IL-18BP), IFNγ” value turned out to be 0.45 nM.

In the case of B14, the “EC50 in PBMC Assay 1 (endogenous IL-18BP), IFNγ” value amounted to 0.6 nM and the “EC50 in PBMC Assay 2 (precomplexed IL-18BP), IFNγ” value was found to be 0.64 nM.

B15: the “EC50 in PBMC Assay 1 (endogenous IL-18BP), IFNγ” value is 1.6 nM and the “EC50 in PBMC Assay 2 (precomplexed IL-18BP), IFNγ” value was determined as 2.75 nM.

With B16, the “EC50 in PBMC Assay 1 (endogenous IL-18BP), IFNγ” value amounted to 7.5 nM and the “EC50 in PBMC Assay 2 (precomplexed IL-18BP), IFNγ” value amounted to 1.2 nM.

Take B17: the “EC50 in PBMC Assay 1 (endogenous IL-18BP), IFNγ” value turned out to be 5.3 nM and the “EC50 in PBMC Assay 2 (precomplexed IL-18BP), IFNγ” value worked out at 7.4 nM.

The next assay has the same target. Description: BLI, affinity column of Table E8. (BLI is a label-free optical method that tracks binding on a fibre tip over time.)
B1 had a Kd of 0.345 nM.

As to B2, the Kd worked out at 0.076 nM.

B3 gave a Kd of 0.254 nM.

With B4, the Kd was 0.015 nM.

Consider B5, for which the Kd was determined as 0.243 nM.

B6 gave a Kd of 0.117 nM.

Consider B7, for which the Kd was 0.039 nM.

The molecule B8 registered a Kd of 0.133 nM.

For the molecule B9, the Kd amounted to 0.136 nM.

Take B10: the Kd was 0.468 nM.

With B11, the Kd came to 0.249 nM.

For the molecule B12, the Kd was found to be 0.272 nM.

As for B13, the Kd came to 0.329 nM.

In turn, B14 had a Kd of 0.228 nM.

As for B15, the Kd is 0.182 nM.

B16 yielded a Kd of 0.128 nM.

Molecule B17 gave a Kd of 0.107 nM.

The target is the same in a further assay. The assay can be described thus: BLI (Octet), mAb on AHC biosensor.
B1: the Kd came out at 0.345 nM.

B2: the Kd is 0.076 nM.

B3 returned a Kd of 0.254 nM.

For the molecule B4, the Kd came out at 0.015 nM.

B5 had a Kd of 0.243 nM.

Take B6: the Kd was found to be 0.117 nM.

For the molecule B7, the Kd was 0.039 nM.

For B8, the Kd stood at 0.133 nM.

B9 registered a Kd of 0.136 nM.

With B10, the Kd stood at 0.468 nM.

For the molecule B18, the Kd came out at 0.027 nM.

Turning to B11, the Kd amounted to 0.249 nM.

Consider B12, for which the Kd came to 0.272 nM.

Turning to B13, the Kd amounted to 0.329 nM.

On to B14, for which the Kd came to 0.228 nM.

B15: the Kd amounted to 0.182 nM.

As to B16, the Kd turned out to be 0.128 nM.

B17 came in with a Kd of 0.107 nM.

For a further assay, the target named is T2, cynomolgus IL-18BP. Description: BLI (Octet), mAb on AHC biosensor.
B1: the Kd amounted to 0.156 nM.

Molecule B18 displayed a Kd of 0.036 nM.

As for B15, the Kd came out at 0.077 nM.

A further assay has as its target T2, cynomolgus IL-18BP. The assay can be described thus: ratio of BLI KDs, cyno against human IL-18BP.
For the molecule B1, the Cyno/human was determined as 0.45 ratio.

In the case of B18, the Cyno/human was found to be 1.33 ratio.

In the case of B15, the Cyno/human came to 0.42 ratio.

A further assay addresses T1, human IL-18BP (interleukin-18 binding …). Description: BLI single-concentration screen, apparent KD.
For B19, the Kd is 1 nM.

In the case of B20, the Kd came out at 0.6 nM.

With B21, the Kd was found to be 1 nM.

For the molecule B22, the Kd stood at 0.6 nM.

As for B23, the Kd is 0.4 nM.

On to B24, for which the Kd was 0.5 nM.

As to B25, the Kd stood at 0.4 nM.

In a further assay the target is T2, cynomolgus IL-18BP. Description: BLI single-concentration screen, apparent KD.
In the case of B19, the Kd was found to be 0.5 nM.

Turning to B20, the Kd is 0.5 nM.

As for B21, the Kd came out at 0.6 nM.

Turning to B22, the Kd is 0.4 nM.

With B23, the Kd stood at 0.3 nM.

With B24, the Kd turned out to be 0.4 nM.

For the molecule B25, the Kd stood at 0.2 nM.
